B2: HpUreD(E140A) with C-terminal Strep-tag II, in the cryo-EM sample (natural protein)
chain: MNTYAQESKLRLKTKIGADGRCVIEDNFFTPPFKLMAPFYPKDDLAEIMLLAVSPGMMRGDAQDVQLNIGPNCKLRITSQSFEKIHNTEDGFASRDMHIVVGENAFLDFAPFPLIPFENAHFKGNTTISLRSSSQLLYSAIIVAGRVARNELFKFNRLHTKISILQDEKPIYYDNTILDPKTTDLNNMCMFDGYTHYLNLVLVNCPIELSGVRECIEESEGVDGAVSETASSHLCVKALAKGSEPLLHLREKIARLVTQTTTQKV
notes: Helicobacter pylori urease accessory protein HpUreD (encoded by ureH); also called UreH

Assay in all cases: cryo-EM structure; HpUreFD/urease complex coexpressed in E. coli, purified by Strep-Tactin XT and Superose-6 SEC in 50 mM Hepes, 200 mM NaCl, 0.5 mM TCEP (pH 7.5); 0.5 mg/ml on grids; tetrahedral symmetry; 2.3 Å
Holding throughout (conditions): both partners purified

Assay [1] has as its target T1, H. pylori urease (HpUreAB), in the cryo-EM sample (Helicobacter pylori, UniProt P14916 1-238; P69996 1-569).
T1 construct: Helicobacter pylori urease subunit HpUreA (γ and β domains); Helicobacter pylori urease subunit HpUreB (α domain); dodecamer of HpUreAB catalytic units (four trimers); copies: 12 + 12

Assay [2] deals with T2, HpUreB (H. pylori urease subunit, α domain), in the cryo-EM sample (Helicobacter pylori, UniProt P69996 1-569).
T2 construct: Helicobacter pylori urease subunit HpUreB (α domain)
T2 sequence (P69996 whole entry): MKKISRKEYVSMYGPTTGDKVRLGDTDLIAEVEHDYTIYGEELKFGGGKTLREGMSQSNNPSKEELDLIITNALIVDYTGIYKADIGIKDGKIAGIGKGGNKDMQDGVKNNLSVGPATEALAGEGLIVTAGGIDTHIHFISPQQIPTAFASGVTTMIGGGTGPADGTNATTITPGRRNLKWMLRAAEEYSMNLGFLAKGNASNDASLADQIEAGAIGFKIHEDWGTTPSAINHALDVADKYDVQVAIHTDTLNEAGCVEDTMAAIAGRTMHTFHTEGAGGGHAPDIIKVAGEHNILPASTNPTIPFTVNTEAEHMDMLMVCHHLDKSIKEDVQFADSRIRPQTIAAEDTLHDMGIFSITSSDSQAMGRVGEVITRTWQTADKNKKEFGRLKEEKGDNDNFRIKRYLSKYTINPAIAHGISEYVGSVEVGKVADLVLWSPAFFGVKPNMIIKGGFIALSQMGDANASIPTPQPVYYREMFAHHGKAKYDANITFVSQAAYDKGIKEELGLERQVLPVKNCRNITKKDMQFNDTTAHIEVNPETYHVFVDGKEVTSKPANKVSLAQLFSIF

Assay [3] concerns the target B2.

T1 sequence (P69996 whole entry, one chain of several): as the sequence (P69996 whole entry) above

B1: HpUreF(R179A/Y183D)/HpUreD(E140A)-Strep complex, in the cryo-EM sample (complex)
chain 1: MDKGKSVKSTEKSVGMPPKTPKTDNNAHVDNEFLILQVNDAVFPIGSYTHSFGLETYIQQKKVTNKESALEYLKANLSSQFLYTEMLSLKLTYESALQQDLKKILGVEEVIMLSTSPMELRLANQKLGNRFIKTLQAMNELDMGEFFNAYAQKTKDPTHATSYGVFAASLGIELKKALAHYLDAQTSNMVINCVKSVPLSQNDGQKILLSLQSPFNQLIEKTLELDESHLCTASVQNDIKAMQHESLYSRLYMS
chain 2: MNTYAQESKLRLKTKIGADGRCVIEDNFFTPPFKLMAPFYPKDDLAEIMLLAVSPGMMRGDAQDVQLNIGPNCKLRITSQSFEKIHNTEDGFASRDMHIVVGENAFLDFAPFPLIPFENAHFKGNTTISLRSSSQLLYSAIIVAGRVARNELFKFNRLHTKISILQDEKPIYYDNTILDPKTTDLNNMCMFDGYTHYLNLVLVNCPIELSGVRECIEESEGVDGAVSETASSHLCVKALAKGSEPLLHLREKIARLVTQTTTQKV
notes: Helicobacter pylori urease accessory protein HpUreF; Helicobacter pylori urease accessory protein HpUreD (encoded by ureH); one copy of HpUreF and one of HpUreD per urease catalytic unit; also called HpUreFD
As to B1, the binding result in assay [1] is reported as “binds”.

Regarding B2, the binding result in assay [2] is “binds”.

B3: HpUreF(R179A/Y183D), in the cryo-EM sample (natural protein)
chain: MDKGKSVKSTEKSVGMPPKTPKTDNNAHVDNEFLILQVNDAVFPIGSYTHSFGLETYIQQKKVTNKESALEYLKANLSSQFLYTEMLSLKLTYESALQQDLKKILGVEEVIMLSTSPMELRLANQKLGNRFIKTLQAMNELDMGEFFNAYAQKTKDPTHATSYGVFAASLGIELKKALAHYLDAQTSNMVINCVKSVPLSQNDGQKILLSLQSPFNQLIEKTLELDESHLCTASVQNDIKAMQHESLYSRLYMS
notes: Helicobacter pylori urease accessory protein HpUreF; everywhere else R179A/Y183D
For B3, the binding result in assay [3] is given as “binds”.

B4: HpUreA (H. pylori urease subunit, fusion of the γ and β domains), in the cryo-EM sample (natural protein)
chain: MKLTPKELDKLMLHYAGELAKKRKEKGIKLNYVEAVALISAHIMEEARAGKKTAAELMQEGRTLLKPDDVMDGVASMIHEVGIEAMFPDGTKLVTVHTPIEANGKLVPGELFLKNEDITINEGKKAVSVKVKNVGDRPVQIGSHFHFFEVNRCLDFDREKTFGKRLDIASGTAVRFEPGEEKSVELIDIGGNRRIFGFNALVDRQADNESKKIALHRAKERGFHGAKSDDNYVKTIKE
notes: Helicobacter pylori urease subunit HpUreA (γ and β domains)
On to B4, for which the binding result in assay [2] and in assay [3] was “binds” in each case.

(Values after PMC10121161, “Delivering a toxic metal to the active site of urease” (Science Advances, 2023).)
